Patent US20070071746A1 (AstraZeneca / MedImmune, published 2007)

Columns and labels:
[1] = molecular target: T1, Ym2 (mouse, UniProt Q91Z98 22-402); assay: ELISA; + = 0.20 to 0.99 OD at 62.5 ng/ml
T1 construct: Recombinant from HEK293; non-tagged versions also made; also called chitinase 3-like 4

[2] = molecular target: T2, human YKL-39 (human, UniProt Q15782 27-390); assay: ELISA; + = 0.20 to 0.99 OD at 62.5 ng/ml
T2 construct: Recombinant from HEK293; non-tagged versions also made; also called hYKL-39; chondrocyte protein 39
T2 sequence: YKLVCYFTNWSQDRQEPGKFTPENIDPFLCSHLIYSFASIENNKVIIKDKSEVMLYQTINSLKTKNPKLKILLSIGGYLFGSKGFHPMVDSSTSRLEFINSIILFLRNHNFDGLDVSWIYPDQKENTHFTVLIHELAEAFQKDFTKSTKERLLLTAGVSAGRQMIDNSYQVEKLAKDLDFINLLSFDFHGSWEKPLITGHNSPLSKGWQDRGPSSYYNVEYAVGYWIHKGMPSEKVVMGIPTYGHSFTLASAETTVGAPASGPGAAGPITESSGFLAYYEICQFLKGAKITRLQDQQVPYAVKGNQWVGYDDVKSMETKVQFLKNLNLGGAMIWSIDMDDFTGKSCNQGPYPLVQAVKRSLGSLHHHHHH

[3] = molecular target: T3, mouse AMCase E140A (mouse, UniProt Q91XA9 22-473); assay: ELISA; + = 0.20 to 0.99 OD at 62.5 ng/ml
T3 construct: Full length point mutant without chitinase activity; also called mAMCase E140A

[4] = molecular target: T4, mouse AMCase truncated form lacking the C-terminal chitin binding domain (mouse, UniProt Q91XA9 22-398, limits assumed); assay: ELISA; ++ = 1.00 to 2.49 OD at 62.5 ng/ml
T4 construct: also called mAMCase TR

[5] = molecular target: T5, mouse acidic mammalian chitinase (AMCase), full length (mouse, UniProt Q91XA9 22-473); assay: ELISA; ++ = 1.00 to 2.49 OD at 62.5 ng/ml
T5 construct: Recombinant, secreted from HEK293 cells and purified by its His tag; Biotin labeled in the galectin ELISA; also called mAMCase; mouse AMCase

[6] = molecular target: T6, mouse YKL-40/BRP-39 (mouse, UniProt Q61362 30-389); assay: ELISA
T6 construct: Recombinant from HEK293; non-tagged versions also made; also called mYKL40/BRP39; mYKL-40

[7] = molecular target: T7, human YKL-40 (human, UniProt P36222 22-383); assay: ELISA
T7 construct: Recombinant from HEK293; non-tagged versions also made; also called hYKL-40; chitinase 3-like 1

[8] = molecular target: T5, mouse acidic mammalian chitinase …; assay: ELISA; + = 0.20 to 0.99 OD at 62.5 ng/ml
[9] = molecular target: T8, mouse AMCase D136A (mouse, UniProt Q91XA9 22-473); assay: ELISA; ++ = 1.00 to 2.49 OD at 62.5 ng/ml
T8 construct: Full length point mutant without chitinase activity; also called mAMCase D136A

[10] = molecular target: T1, Ym2; assay: ELISA
[11] = molecular target: T4, mouse AMCase truncated form lacking the …; assay: ELISA
[12] = molecular target: T2, human YKL-39; assay: ELISA
[13] = molecular target: T9, mouse chitotriosidase (mouse, UniProt Q9D7Q1 22-464); assay: ELISA
T9 construct: Recombinant from HEK293; non-tagged versions also made; also called mChT; mouse ChT

[14] = molecular target: T10, Ym1 (mouse, UniProt O35744 22-398); assay: ELISA
T10 construct: Recombinant from HEK293; non-tagged versions also made; also called chitinase 3-like 3; ECF-L

[15] = molecular target: T11, human AMCase C-terminally truncated, lacking the chitin binding domain (human, UniProt Q9BZP6 22-398, limits assumed); assay: ELISA
T11 construct: Biotin labeled in the galectin ELISA; also called hAMCase TR

[16] = molecular target: T12, human chitotriosidase (human, UniProt Q13231 22-466); assay: ELISA
T12 construct: Recombinant from HEK293; non-tagged versions also made; also called hChT; ChT
T12 sequence (Q13231 other isoform, or with tags, fused parts or gaps limits assumed): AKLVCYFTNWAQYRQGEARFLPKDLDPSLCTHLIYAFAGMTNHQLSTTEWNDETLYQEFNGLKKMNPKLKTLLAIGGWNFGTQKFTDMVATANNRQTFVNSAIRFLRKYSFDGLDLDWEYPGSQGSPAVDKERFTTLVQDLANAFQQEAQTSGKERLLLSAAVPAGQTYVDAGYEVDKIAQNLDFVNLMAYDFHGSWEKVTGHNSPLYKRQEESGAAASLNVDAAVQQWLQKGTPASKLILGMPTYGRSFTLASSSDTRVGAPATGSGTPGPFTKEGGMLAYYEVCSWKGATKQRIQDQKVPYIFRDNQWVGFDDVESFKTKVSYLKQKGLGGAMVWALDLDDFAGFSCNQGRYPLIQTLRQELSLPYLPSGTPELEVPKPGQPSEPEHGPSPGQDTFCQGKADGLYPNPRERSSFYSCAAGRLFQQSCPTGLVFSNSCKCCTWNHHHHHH

T5 sequence (Q91XA9 other isoform, or with tags, fused parts or gaps limits assumed): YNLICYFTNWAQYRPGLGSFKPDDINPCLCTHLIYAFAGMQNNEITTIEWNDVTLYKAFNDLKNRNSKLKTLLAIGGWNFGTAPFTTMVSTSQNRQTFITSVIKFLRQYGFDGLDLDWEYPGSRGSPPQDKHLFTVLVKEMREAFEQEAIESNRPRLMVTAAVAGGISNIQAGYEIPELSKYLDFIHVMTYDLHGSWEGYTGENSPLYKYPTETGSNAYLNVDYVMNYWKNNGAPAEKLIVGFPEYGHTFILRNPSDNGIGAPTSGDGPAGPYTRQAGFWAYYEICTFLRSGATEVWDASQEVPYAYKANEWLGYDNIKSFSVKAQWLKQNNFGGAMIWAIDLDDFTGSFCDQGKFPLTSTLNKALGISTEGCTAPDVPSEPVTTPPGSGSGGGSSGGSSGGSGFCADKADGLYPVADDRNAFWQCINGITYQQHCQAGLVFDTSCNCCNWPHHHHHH
T1 sequence (Q91Z98 other isoform, or with tags, fused parts or gaps limits assumed): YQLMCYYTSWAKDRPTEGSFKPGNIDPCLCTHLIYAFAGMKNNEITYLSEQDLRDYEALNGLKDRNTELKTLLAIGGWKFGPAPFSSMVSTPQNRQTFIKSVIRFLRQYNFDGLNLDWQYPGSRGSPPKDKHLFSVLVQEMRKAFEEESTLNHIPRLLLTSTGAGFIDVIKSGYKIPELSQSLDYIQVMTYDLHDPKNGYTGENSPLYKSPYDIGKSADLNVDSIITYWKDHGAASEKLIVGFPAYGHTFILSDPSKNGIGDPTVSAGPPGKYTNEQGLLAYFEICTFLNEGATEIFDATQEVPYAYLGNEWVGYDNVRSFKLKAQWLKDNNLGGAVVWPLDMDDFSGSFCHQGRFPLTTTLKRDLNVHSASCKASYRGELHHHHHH
T4 sequence (Q91XA9 22-398 limits assumed): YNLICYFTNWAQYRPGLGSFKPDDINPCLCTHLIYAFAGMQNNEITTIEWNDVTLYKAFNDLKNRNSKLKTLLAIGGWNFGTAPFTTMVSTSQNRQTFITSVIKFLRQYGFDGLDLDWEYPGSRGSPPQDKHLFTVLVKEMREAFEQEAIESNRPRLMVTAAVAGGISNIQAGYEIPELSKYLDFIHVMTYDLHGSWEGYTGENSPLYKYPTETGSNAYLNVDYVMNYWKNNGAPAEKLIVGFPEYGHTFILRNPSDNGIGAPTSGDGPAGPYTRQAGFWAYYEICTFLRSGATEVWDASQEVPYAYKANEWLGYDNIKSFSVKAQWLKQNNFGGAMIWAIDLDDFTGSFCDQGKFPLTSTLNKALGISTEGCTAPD
T6 sequence (Q61362 other isoform, or with tags, fused parts or gaps limits assumed): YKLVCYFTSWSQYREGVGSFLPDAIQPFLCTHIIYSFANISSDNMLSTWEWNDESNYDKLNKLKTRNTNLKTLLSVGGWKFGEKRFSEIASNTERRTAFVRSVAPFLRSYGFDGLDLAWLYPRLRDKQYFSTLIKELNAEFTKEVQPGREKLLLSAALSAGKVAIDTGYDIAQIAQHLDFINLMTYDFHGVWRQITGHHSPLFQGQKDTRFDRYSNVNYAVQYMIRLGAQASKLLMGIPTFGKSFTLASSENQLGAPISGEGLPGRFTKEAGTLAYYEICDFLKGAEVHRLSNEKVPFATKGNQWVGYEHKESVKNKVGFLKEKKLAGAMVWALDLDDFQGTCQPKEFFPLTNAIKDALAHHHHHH
T7 sequence (P36222 other isoform, or with tags, fused parts or gaps limits assumed): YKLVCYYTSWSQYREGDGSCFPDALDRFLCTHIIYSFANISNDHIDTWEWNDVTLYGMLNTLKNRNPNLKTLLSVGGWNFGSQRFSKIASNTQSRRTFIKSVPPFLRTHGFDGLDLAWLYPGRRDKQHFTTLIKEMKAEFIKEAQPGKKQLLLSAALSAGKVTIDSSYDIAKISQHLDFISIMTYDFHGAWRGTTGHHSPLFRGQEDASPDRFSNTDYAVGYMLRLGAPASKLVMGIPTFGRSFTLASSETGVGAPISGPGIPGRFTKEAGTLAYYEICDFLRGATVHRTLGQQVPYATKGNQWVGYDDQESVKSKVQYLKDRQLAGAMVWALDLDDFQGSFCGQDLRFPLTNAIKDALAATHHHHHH
T3 sequence (Q91XA9 22-473 E140A limits assumed): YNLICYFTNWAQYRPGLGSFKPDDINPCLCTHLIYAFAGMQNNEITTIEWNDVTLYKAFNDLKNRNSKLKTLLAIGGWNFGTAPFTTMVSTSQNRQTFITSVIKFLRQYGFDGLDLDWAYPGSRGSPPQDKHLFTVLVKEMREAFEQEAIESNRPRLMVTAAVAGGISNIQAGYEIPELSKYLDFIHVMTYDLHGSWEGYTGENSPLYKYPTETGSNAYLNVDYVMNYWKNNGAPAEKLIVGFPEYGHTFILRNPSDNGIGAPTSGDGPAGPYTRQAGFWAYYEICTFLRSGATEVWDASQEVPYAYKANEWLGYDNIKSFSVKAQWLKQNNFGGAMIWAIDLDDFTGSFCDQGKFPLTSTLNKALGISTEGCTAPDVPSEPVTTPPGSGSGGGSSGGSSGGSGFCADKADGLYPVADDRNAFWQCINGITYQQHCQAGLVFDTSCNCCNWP
T11 sequence (Q9BZP6 22-398 limits assumed): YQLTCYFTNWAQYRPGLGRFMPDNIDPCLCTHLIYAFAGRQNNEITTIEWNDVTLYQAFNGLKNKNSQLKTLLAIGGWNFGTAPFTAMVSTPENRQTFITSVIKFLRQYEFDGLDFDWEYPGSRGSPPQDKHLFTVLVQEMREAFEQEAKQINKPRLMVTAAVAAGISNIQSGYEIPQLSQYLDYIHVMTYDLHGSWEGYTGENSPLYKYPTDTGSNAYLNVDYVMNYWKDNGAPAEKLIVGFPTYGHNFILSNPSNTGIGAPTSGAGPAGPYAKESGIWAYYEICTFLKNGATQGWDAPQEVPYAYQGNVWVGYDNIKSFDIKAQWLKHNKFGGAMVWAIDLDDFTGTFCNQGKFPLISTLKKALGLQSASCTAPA
T9 sequence (Q9D7Q1 other isoform, or with tags, fused parts or gaps limits assumed): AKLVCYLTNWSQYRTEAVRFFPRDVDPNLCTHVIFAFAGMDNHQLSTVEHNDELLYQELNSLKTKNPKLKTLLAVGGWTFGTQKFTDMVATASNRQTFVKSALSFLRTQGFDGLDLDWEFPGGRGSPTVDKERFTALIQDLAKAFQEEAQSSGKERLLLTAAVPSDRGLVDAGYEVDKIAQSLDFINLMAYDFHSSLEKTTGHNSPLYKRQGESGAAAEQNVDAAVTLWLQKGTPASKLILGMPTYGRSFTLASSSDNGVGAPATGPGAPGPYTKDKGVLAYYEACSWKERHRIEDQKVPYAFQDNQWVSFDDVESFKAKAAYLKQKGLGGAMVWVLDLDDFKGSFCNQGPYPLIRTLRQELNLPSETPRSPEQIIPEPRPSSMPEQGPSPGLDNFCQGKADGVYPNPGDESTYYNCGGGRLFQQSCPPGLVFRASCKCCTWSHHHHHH
T10 sequence (O35744 other isoform, or with tags, fused parts or gaps limits assumed): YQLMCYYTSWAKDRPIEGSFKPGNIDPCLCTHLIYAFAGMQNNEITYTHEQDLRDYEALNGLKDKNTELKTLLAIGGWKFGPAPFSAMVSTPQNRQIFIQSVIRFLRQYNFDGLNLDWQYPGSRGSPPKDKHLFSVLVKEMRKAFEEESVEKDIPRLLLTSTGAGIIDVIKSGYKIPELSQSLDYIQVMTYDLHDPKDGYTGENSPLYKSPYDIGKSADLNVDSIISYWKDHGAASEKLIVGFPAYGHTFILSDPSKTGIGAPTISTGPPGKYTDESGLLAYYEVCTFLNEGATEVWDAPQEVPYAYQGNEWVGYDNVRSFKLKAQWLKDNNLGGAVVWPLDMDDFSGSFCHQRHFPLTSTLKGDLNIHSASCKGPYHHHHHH
T8 sequence (Q91XA9 22-473 D136A limits assumed): as the sequence (Q91XA9 22-473 E140A limits assumed) above, with D115A, A119E counted along it

B1: Z1 (antibody, V domains shown)
VH: EVQLLESGGGLVQPGGSLRLSCAASGFTFSFYRMAWVRQAPGKGLEWVSRISSSGGPTMYADSVKGRFTISRDNSKNTLYLQMNSLRAEDTAVYYCTTEKQYAGVTFESWGQGTLVTVSS
VL: DIQMTQSPATLSLSPGERATLSCRASQSVSSYLAWYQQKPGQAPRLLIYDASNRATGIPARFSGSGSGTDFTLTISSLEPEDFAVYYCQQRSNSPTFGGGTKVEIK
notes: Fully human anti-AMCase antibody from phage display, converted to full length IgG
binding result [1]: binds | ELISA OD at 62.5 ng/ml antibody [2]: 0.2 to 0.99 od | ELISA OD at 62.5 ng/ml antibody [3]: 0.2 to 0.99 od | ELISA OD at 62.5 ng/ml antibody [4]: 1 to 2.49 od | ELISA OD at 62.5 ng/ml antibody [5]: 1 to 2.49 od | binding result [6]: no binding | binding result [7]: no binding

B2: Z8 (antibody, V domains shown)
VH: EVQLLESGGGLVQPGGSLRLSCAASGFTFSPYLMWWVRQAPGKGLEWVSYISSSGGYTSYADSVKGRFTISRDNSKNTLYLQMNSLRAEDTAMYYCARMYYYDSSGYPSFDYWGQGTLVTVSS
VL: QSALTQPPSASGTPGQRVTISCSGSGSNIGSNTVNWYQQLPGTAPKLLIYSSNQRPSGVSDRFSGSKSVASASLAINGLQSEDEADYYCAGWDDSLNGPVFGGGTKLTVL
notes: as for B1
ELISA OD at 62.5 ng/ml antibody [3]: 0.2 to 0.99 od | ELISA OD at 62.5 ng/ml antibody [8]: 0.2 to 0.99 od | ELISA OD at 62.5 ng/ml antibody [9]: 1 to 2.49 od | binding result [6]: no binding | binding result [10]: no binding | binding result [11]: no binding | binding result [7]: no binding | binding result [12]: no binding | binding result [13]: no binding | binding result [14]: no binding | binding result [15]: no binding | binding result [16]: no binding
